This test addresses Human plasminogen (human).

Sequence of Human plasminogen (human) (P00747 20-810): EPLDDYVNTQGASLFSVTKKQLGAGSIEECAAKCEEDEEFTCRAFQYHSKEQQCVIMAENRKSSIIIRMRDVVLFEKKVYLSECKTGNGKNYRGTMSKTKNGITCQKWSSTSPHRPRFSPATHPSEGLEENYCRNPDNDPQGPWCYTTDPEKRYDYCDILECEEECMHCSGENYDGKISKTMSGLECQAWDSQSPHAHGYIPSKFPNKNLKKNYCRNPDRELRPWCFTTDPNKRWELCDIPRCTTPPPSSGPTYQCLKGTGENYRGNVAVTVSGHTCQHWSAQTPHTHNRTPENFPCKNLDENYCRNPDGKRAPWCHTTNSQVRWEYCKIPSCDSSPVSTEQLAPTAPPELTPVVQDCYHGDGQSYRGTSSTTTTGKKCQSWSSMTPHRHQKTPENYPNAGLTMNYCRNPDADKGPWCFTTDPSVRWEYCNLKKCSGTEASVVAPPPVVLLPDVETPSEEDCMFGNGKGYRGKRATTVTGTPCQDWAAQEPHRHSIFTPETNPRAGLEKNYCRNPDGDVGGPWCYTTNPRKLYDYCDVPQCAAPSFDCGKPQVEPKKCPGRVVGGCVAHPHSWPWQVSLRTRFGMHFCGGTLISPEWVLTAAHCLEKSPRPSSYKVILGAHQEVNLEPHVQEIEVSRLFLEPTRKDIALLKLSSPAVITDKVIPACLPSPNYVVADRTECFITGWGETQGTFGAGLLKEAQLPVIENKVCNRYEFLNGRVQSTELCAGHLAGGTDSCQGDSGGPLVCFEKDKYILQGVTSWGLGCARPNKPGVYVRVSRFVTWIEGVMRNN

B1: EPF3, fibrinolytic protein from Pheretima vulgaris (enzyme)
chain: ILGGTEARVGEIPWQLSQQRGGSHSCGASLLRPGSALSAAHCVDGAPPADVRIVAGLHLRSDESTAVASLAESFLIHPSYNVGEGTFPNDIAIIYLLTNINSAPVENIDFALLPPDNVEQFVGFTCVLSGWGRTSASNVLPDALQKVSIDVITTAECDSRMAAVAGADCTDAHIAVFDPALQKGSCNGDSGGPMNCPLSGEFVVAGVTSWGISGGGACLPEYPSVYTRTGFYRQWIIDNIR
As to B1, the plasminogen activation on fibrin plates: fibrinolytic zone of the mixture of EPF3 and plasminogen against that of EPF3 alone (3, 6, 18 h, 37°C) was 20.2%.
